Experimental data published in paper PMC7127797 (Virus Research, 2004).

Target: SARS-CoV nucleocapsid (N) protein, full length, in the pM vector (pM-N) (SARS-CoV, UniProt P59595 1-422)
Test: two-hybrid

SARS-CoV nucleocapsid (N) protein, full length, in the pM vector (pM-N), sequence (P59595 whole entry): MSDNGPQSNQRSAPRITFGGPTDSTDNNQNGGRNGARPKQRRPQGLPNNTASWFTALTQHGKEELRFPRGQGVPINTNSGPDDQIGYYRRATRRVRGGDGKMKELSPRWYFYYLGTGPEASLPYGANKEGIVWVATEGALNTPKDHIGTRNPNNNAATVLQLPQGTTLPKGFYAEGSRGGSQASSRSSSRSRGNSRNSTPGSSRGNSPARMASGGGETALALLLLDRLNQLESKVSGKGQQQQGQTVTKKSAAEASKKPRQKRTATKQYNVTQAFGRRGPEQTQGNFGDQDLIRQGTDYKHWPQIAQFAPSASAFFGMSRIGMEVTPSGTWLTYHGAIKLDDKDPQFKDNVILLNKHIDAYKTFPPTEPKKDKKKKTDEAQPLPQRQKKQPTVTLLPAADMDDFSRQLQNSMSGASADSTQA

B1: SARS-CoV membrane (M) protein in the pVP16 vector (pVP16-M) (natural protein)
chain: MADNGTITVEELKQLLEQWNLVIGFLFLAWIMLLQFAYSNRNRFLYIIKLVFLWLLWPVTLACFVLAAVYRINWVTGGIAIAMACIVGLMWLSYFVASFRLFARTRSMWSFNPETNILLNVPLRGTIVTRPLMESELVIGAVIIRGHLRMAGHSLGRCDIKDLPKEITVATSRTLSYYKLGASQRVGTDSGFAAYNRYRIGNYKLNTDHAGSNDNIALLVQ
  fold chemiluminescence (SEAP) over controls: > 5 fold
